In IntAct's records for PubMed 20618438:

B1: Hereditary hemochromatosis protein (Homo sapiens), Q30201 (parent)
chain: MGPRARPALLLLMLLQTAVLQGRLLRSHSLHYLFMGASEQDLGLSLFEALGYVDDQLFVFYDHESRRVEPRTPWVSSRISSQMWLQLSQSLKGWDHMFTVDFWTIMENHNHSKESHTLQVILGCEMQEDNSTEGYWKYGYDGQDHLEFCPDTLDWRAAEPRAWPTKLEWERHKIRARQNRAYLERDCPAQLQQLLELGRGVLDQQVPPLVKVTHHVTSSVTTLRCRALNYYPQNITMKWLKDKQPMDAKEFEPKDVLPNGDGTYQGWITLAVPPGEEQRYTCQVEHPGLDQPLIVIWEPSPSGTLVIGVISGIAVFVVILFIGILFIILRKRQGSRGAMGHYVLAERE

Key:
trfe_human TF, P02787 [1] = variants of: B1; details: with trfe_human TF
b2mg_human B2M, P61769 [2] = variants of: B1; details: with b2mg_human B2M
trfe_human TF, P02787 [3] = variants of: B1; details: with trfe_human TF; remark: listed apart in the source
b2mg_human B2M, P61769 [4] = variants of: B1; details: with b2mg_human B2M; remark: listed apart in the source
tfr1_human TFRC, P02786 = variants of: B1; details: with tfr1_human TFRC
trfe_human TF, P02787 [5] = variants of: B1; details: with trfe_human TF; remark: listed apart in the source
trfe_human TF, P02787 [6] = variants of: B1; details: with trfe_human TF; remark: listed apart in the source

Sequence of trfe_human TF, P02787 (P02787 whole entry): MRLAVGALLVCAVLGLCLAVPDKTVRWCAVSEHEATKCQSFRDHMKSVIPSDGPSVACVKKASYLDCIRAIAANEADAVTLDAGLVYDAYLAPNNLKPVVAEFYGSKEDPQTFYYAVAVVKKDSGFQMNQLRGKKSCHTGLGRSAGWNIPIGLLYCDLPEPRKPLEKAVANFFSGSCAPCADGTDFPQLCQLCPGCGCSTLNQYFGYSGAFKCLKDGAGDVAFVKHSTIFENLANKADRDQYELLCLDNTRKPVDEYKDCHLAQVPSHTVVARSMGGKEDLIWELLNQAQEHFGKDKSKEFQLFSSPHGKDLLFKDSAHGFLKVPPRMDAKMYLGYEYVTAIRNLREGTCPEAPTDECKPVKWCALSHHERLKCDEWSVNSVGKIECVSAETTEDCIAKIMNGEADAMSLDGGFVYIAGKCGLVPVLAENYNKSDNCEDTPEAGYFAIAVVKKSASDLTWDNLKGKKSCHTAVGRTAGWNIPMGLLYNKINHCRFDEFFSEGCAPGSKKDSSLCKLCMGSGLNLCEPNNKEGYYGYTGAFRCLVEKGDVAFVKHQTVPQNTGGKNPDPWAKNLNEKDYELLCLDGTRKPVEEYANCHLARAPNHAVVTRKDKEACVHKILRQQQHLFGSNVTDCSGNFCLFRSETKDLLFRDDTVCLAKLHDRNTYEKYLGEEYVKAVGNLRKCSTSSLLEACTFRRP
Sequence of tfr1_human TFRC, P02786 (P02786 whole entry, looked up): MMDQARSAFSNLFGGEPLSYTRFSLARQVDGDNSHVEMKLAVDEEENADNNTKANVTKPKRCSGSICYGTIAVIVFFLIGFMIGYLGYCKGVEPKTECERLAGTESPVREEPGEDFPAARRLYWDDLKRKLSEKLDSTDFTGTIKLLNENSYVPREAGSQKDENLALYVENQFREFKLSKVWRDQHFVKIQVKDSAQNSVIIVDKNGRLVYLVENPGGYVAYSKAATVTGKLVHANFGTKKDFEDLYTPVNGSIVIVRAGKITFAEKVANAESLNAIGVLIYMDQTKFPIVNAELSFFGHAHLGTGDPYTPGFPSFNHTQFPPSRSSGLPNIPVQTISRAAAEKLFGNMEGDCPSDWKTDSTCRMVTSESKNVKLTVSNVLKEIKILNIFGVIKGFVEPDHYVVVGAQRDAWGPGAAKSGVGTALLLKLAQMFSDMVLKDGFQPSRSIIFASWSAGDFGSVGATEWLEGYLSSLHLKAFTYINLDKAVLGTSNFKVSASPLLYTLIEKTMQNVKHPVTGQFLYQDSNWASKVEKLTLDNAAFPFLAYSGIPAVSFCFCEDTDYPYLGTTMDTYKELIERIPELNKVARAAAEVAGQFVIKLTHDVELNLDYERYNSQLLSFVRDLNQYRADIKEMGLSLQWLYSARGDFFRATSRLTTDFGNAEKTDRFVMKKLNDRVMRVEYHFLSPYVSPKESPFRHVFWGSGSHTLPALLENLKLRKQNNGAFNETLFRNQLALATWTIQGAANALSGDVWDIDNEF

Variant	effect of a mutation on the interaction (trfe_human TF, P02787 [1])	effect of a mutation on the interaction (b2mg_human B2M, P61769 [2])	effect of a mutation on the interaction (trfe_human TF, P02787 [3])	effect of a mutation on the interaction (b2mg_human B2M, P61769 [4])	effect of a mutation on the interaction (tfr1_human TFRC, P02786)	effect of a mutation on the interaction (trfe_human TF, P02787 [5])	effect of a mutation on the interaction (trfe_human TF, P02787 [6])
N110A	–	–	–	disrupting interaction	disrupting interaction	disrupting interaction	decreasing interaction
N130A	–	–	–	disrupting interaction	disrupting interaction	disrupting interaction	decreasing interaction

Further lines, results first:

effect of a mutation on the interaction (trfe_human TF, P02787 [1])	effect of a mutation on the interaction (b2mg_human B2M, P61769 [2])	effect of a mutation on the interaction (trfe_human TF, P02787 [3])	effect of a mutation on the interaction (b2mg_human B2M, P61769 [4])	effect of a mutation on the interaction (tfr1_human TFRC, P02786)	effect of a mutation on the interaction (trfe_human TF, P02787 [5])	effect of a mutation on the interaction (trfe_human TF, P02787 [6])	Variant
disrupting interaction	disrupting interaction	–	–	–	–	–	C282Y
–	–	decreasing interaction	disrupting interaction	–	–	–	N234A
